Data from patent US11054430B2, “Compounds and methods for the detection of methotrexate” (Defined Diagnostics, LLC, priority 2015, dated 2021).
Positions count from the first letter of the chain named.

B1: mAb 10C7: anti-methotrexate mouse monoclonal antibody; variable heavy chain SEQ ID NO:3, variable light chain SEQ ID NO:4 (antibody, V domains shown)
VH: EVQLVESGGGLVKPGGSLRLSCAASGFTFRTYAMSWVRQTPEKRLEWVATITSGGTYIYYLDSVKGRFTISRDNAKNVLYLQMSSLRSEDTAMYYCVRLYGYDGMDYWGQGTSVTVSA
VL: QAVVTQESALTTSPGETVTLTCRSSTGAVSTSNYVNWVQEKPDHLFTGLIGGTKNRVPGVPARFSGSLIGDKAALTITGAQTEDEAIYFCALWYTNHLVFGGGTKLTVL
modifications: mouse
B2: mAb 6D4: anti-methotrexate mouse monoclonal antibody; variable heavy chain SEQ ID NO:11, variable light chain SEQ ID NO:12 (antibody, V domains shown)
VH: QIQLVQSGPELKKPGETVKISCKASGYTFTNYGMNWVKRAPGKGLKWMGWINPYTGEPTYADDFKGRFAFSLETSASTAYLQINNLKNEDMATYFCARNDYYYALDSWGQGTSVTVSS
VL: DVVMTQSPLSLPVSLGDQASISCRSSQSLVKSNGNTYLHWFLQKSGQSPKLLIYKVSNRFSGVPDRFSGSGSGTDFTLKISRVEAEDLGVYFCSQSTHVPWTFGGGTKLEIK
modifications: mouse
B3: mAb 19A6: anti-methotrexate mouse monoclonal antibody; variable heavy chain SEQ ID NO:7, variable light chain SEQ ID NO:8 (antibody, V domains shown)
VH: QIQLVQSGPELKRPGETVKISCKASGYTYTYYGINWLKQAPGKDLKWMGWINPYTGEPAYADDFKGRFAFSLETSATTTYLQINNLKNEDMATYFCARNSYYYALDYWGQGTSVTVSS
VL: B2 VL with S7T, S14N, S28N, S45P
modifications: mouse

Assay: MTX antibody cross-reactivity with 7-OH-MTX (competitive assay)
Format: binding
Conditions: chemical spiked at 100 μM; calculated MTX concentration divided by 100 μM
Procedure: (§1) The 4 selected MTX antibodies, 10C7, 45C11, 6D4, 19A6, were evaluated for cross-reactivity with MTX metabolites and related compounds (7-OH-MTX, DAMPA, Folic Acid and Folinic Acid). The amount of cross-reactivity with each chemical is defined as the percent ratio of the calculated MTX concentration of the chemical divided by 100 μM, which was the spiked concentration of the chemical.

Question: Which “% Cross-Reactivity with 7-OH-MTX” value does the source give for B1 here?
Answer: The value was 0.37%.

Question: For B2, which “% Cross-Reactivity with 7-OH-MTX” value is on record?
Answer: The value was 0.91%.

Question: With B3 as the molecule, how does the “% Cross-Reactivity with 7-OH-MTX” value read?
Answer: The value was 0.76%.

Assay: MTX antibody cross-reactivity with DAMPA (competitive assay)
Format: binding
Conditions: chemical spiked at 100 μM; calculated MTX concentration divided by 100 μM
Procedure: as §1

Question: For B1, which “% Cross-Reactivity with DAMPA” value is on record?
Answer: The value was 0.43%.

Question: For B2, which “% Cross-Reactivity with DAMPA” value is on record?
Answer: The value was 0.52%.

Question: Which “% Cross-Reactivity with DAMPA” value does the source give for B3 here?
Answer: The value was 0.029%.

Assay: MTX antibody cross-reactivity with Folinic Acid (competitive assay)
Format: binding
Conditions: chemical spiked at 100 μM; calculated MTX concentration divided by 100 μM
Procedure: as §1

Question: For B1, which “% Cross-Reactivity with Folinic Acid” value is on record?
Answer: Its value is 0.28%.

Question: Which “% Cross-Reactivity with Folinic Acid” value does the source give for B2 here?
Answer: Its value is 0.24%.

Question: Which “% Cross-Reactivity with Folinic Acid” value does the source give for B3 here?
Answer: Its value is 0.11%.

Assay: MTX antibody cross-reactivity with Folic Acid (competitive assay)
Format: binding
Conditions: chemical spiked at 100 μM; calculated MTX concentration divided by 100 μM
Procedure: as §1

Question: Which “% Cross-Reactivity with Folic Acid” value does the source give for B1 here?
Answer: The value was 0.24%.

Question: With B2 as the molecule, how does the “% Cross-Reactivity with Folic Acid” value read?
Answer: The value was 0.48%.

Question: With B3 as the molecule, how does the “% Cross-Reactivity with Folic Acid” value read?
Answer: The value was 0.073%.
